For series [1], the target named is T1, Spirochaeta thermophila YeeE (Spirochaeta thermophila, UniProt G0GAP6 1-328).
T1 sequence (looked up): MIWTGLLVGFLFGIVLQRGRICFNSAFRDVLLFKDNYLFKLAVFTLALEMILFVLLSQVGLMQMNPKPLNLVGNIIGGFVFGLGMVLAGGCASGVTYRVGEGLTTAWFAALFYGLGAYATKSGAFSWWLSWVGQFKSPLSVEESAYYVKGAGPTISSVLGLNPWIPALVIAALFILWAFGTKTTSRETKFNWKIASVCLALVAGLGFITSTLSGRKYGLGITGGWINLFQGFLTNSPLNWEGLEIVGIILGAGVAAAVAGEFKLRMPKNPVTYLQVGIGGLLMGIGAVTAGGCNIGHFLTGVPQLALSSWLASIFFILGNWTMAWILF
Briefly: BLI.

The series “SEC” deals with the molecule itself. The series is described as follows: SEC. In general terms: In gel filtration, larger molecules generally elute earlier.

B1: Spirochaeta thermophila YeeD, His-tagged, wild type (natural protein, UniProt G0GAP7 1-80, looked up)
chain: MANYQVSKEIDVRGEVCPIPDVEAKRAVQSANDGEIILVRIDYPLSKERIPETVKKLGSEVLEIEEAAPGEWNIYIKVKK
Take B1: in series [1], the affinity, expressed as Kd, was 1600 ± 200 nM. Besides, in the series “SEC”, the stoichiometry N – broadly, the number of molecules, sites or subunits per partner or assembly – is 2.

The values are drawn from doi:10.1101/2023.07.28.550924 (bioRxiv, 2023).
